Test results published in patent US8480647B2, “Delivery device for delivering bioactive agents to internal tissue in a body” (Bioprotect Ltd., priority 2007, dated 2013).

Experiments:
[1] = Release of loaded agents from poly(caprolactone-L-lactide)/PEG porogen balloons; assay type: physicochemical; conditions: for period of constant release from balloon: loaded with 10% w/v solution
Description: In a typical experiment, dichloromethane solutions of poly(caprolactone-L-lactide) 70:30 w/w, Mw=100,000 and polyethylene glycol Mw=400 (PEG400) and PEG2000 mixed at a 1, 5, 10 and 20 w/w % per polymer were used for producing balloons by dipping as described above. The balloons were immersed in water to allow the leach-out of the water soluble PEG. The balloons were analyzed for pore size, uniformity of pores throughout the membrane, and diffusion of LHRH hormone and BSA (bovine serum albumin) as representative protein. Uniform micron size holes of a similar size were generated for the 1 and 5% PEG but more holes for the 5%, while the 20% PEG generated much larger holes throughout the wall which also affects the strength of the wall. […] The balloon remain inflated for about 4 months in 0.1M phosphate buffer solution at 37° C. before signs of degradation occur measured by a significant decrease in molecular weight and change in the flexibility and clarity of the balloons. In a continuation experiment, lyophilized powder of LHRH (10 mg) on dextrose (100 mg) was dispersed in glycerol (100 mg) and injected into the 10 mm diameter balloon and release under physiological conditions was determined.

[2] = Release from L-PLA-co PEG5000 hydrogel-wall balloons in aqueous media; assay type: physicochemical; conditions: 1 cm balloons of L-PLA-co PEG5000 triblock or 50:50 mixture with L-PLA, 200 and 300 micron wall thicknesses
Description: In a similar experiment, biodegradable balloons of 1 cm diameter were prepared from triblock copolymers of L-PLA-co PEG5000, Mw=80,000 or in a 50:50 mixture with L-PLA Mw=120,000 by the solvent casting on a gelatin mold method. Balloons with 200 and 300 micron wall thicknesses were prepared. These balloons swell when inserted in aqueous media to form hydrogel walls which are permeable to water soluble molecules.

| Compound | release behaviour in comparison with the other loaded agents ([1]; poly(caprolactone-L-lactide)/PEG balloons) | release from hydrogel-wall balloons [2] | period of constant release from balloon ([1]; 5% PEG balloons of poly(caprolactone-L-lactide) 70:30) | period of constant release from balloon ([1]; 20% PEG balloons of poly(caprolactone-L-lactide) 70:30) | release of native LHRH from balloon, determined by HPLC ([1]; lyophilized LHRH (10 mg) on dextrose (100 mg) dispersed in glycerol (100 mg), 10 mm diameter balloon, physiological conditions) |
| --- | --- | --- | --- | --- | --- |
| O=c1[nH]cc(F)c(=O)[nH]1 [5-FU] | released much faster for a shorter time period at a zero order profile | constantly release at high amounts for weeks | – | – | – |
| CN(Cc1cnc2nc(N)nc(N)c2n1)c1ccc(C(=O)N[C@@H](CCC(=O)O)C(=O)O)cc1 [methotrexate] | – | constantly release at high amounts for weeks | – | – | – |
| LHRH: LHRH hormone, therapeutic peptide loaded in the balloon | – | released at low concentrations over time | a few months | weeks | constantly released for weeks |
